Patent publication US20060269536A1

Molecular target: hK3 (PSA) (human) (UniProt P07288)
Assay: cell-based or functional assay

Sequence of hK3 (PSA) (human) (P07288 25-261 limits assumed): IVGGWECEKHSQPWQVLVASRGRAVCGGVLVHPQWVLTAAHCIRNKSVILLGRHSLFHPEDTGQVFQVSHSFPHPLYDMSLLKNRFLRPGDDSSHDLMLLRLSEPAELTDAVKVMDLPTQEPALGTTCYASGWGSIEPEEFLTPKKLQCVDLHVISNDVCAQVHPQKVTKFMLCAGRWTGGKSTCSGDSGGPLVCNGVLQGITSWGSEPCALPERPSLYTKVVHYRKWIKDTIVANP

B1: rACT8.20 (designed binder)
chain: MRGSHHHHHHSRHPNSPLDEENLTQENQDRGTHVDLGLASANVDFAFSLYKQLVLKAPDKNVIFSPLSISTALAFLSLGAHNTTLTEILKGLKFNLTETSEAEIHQSFQHLLRTLNQSSDELQLSMGNAMFVKEQLSLLDRFTEDAKRLYGSEAFATDFQDSAAAKKLINDYVKNGTRGKITDLIKDLDSQTMMVLVNYIFFKAKWEMPFDPQDTHQSRFYLSKKKWVMVPMMSLHHLTIPYFRDEELSCTVVELKYTGNASALFILPDQDKMEEVEAMLLPETLKRWRDSLEFREIGELYLPKFSISRDYNLNDILLQLGIEEAFTSKADLSGITGARNLAVSQVVHKAVLDVFEEGTEASAATAVKITLRSRAVETRTIVRFNRPFLMIIVPTDTQNIFFMSKVTNPKQA
B1 was tested. Which Inhibition % (residual enzyme activity, CFP-TFRSA-YFP substrate, 90 min at 37°) did it give?
The Inhibition % (residual enzyme activity, CFP-TFRSA-YFP substrate, 90 min at 37°) was 45%.
